Experimental data as given in publication PMC5789954 (Proceedings of the National Academy of Sciences of the …, 2018).

Target: the molecule itself
Experiment: SEC

B1: CUB1-EGF-CUB2 fragment of C1s (domain or fragment)
chain: EPTMYGEILSPNYPQAYPSEVEKSWDIEVPEGYGIHLYFTHLDIELSENCAYDSVQIISGDTEEGRLCGQRSSNNPHSPIVEEFQVPYNKLQVIFKSDFSNEERFTGFAAYYVATDINECTDFVDVPCSHFCNNFIGGYFCSCPPEYFLHDDMKNCGVNCSGDVFTALIGEIASPNYPKPYPENSRCEYQIRLEKGFQVVVTLRREDFDVEAADSAGNCLDSLVFVAGDRQFGPYCGHGFPGPLNIETKSNALDIIFQTDLTGQKKGWKLRYHGDPM
modifications: N-linked carbohydrate at one site (density seen in the crystals)
  stoichiometry N: 2

B2: CUB1-EGF-CUB2 fragment of C1r (domain or fragment, UniProt P00736 18-307, looked up)
chain: SIPIPQKLFGEVTSPLFPKPYPNNFETTTVITVPTGYRVKLVFQQFDLEPSEGCFYDYVKISADKKSLGRFCGQLGSPLGNPPGKKEFMSQGNKMLLTFHTDFSNEENGTIMFYKGFLAYYQAVDLDECASRSKSGEEDPQPQCQHLCHNYVGGYFCSCRPGYELQEDTHSCQAECSSELYTEASGYISSLEYPRSYPPDLRCNYSIRVERGLTLHLKFLEPFDIDDHQQVHCPYDQLQIYANGKNIGEFCGKQRPPDLDTSSNAVDLLFFTDESGDSRGWKLRYTTEII
modifications: N-linked carbohydrate at two sites (density seen in the crystals)
  stoichiometry N: 2
